Sequences and labels used below:
T1: recombinant human LPHN2 lectin-olfactomedin-like domain, residues F26-P394 (human, UniProt O95490 26-394)
T1 construct: range 26-394; Coated on the plate at 100 nM; also called LPHN2 Lec/Olf domains; Lec-Olf domain
T1 sequence (looked up): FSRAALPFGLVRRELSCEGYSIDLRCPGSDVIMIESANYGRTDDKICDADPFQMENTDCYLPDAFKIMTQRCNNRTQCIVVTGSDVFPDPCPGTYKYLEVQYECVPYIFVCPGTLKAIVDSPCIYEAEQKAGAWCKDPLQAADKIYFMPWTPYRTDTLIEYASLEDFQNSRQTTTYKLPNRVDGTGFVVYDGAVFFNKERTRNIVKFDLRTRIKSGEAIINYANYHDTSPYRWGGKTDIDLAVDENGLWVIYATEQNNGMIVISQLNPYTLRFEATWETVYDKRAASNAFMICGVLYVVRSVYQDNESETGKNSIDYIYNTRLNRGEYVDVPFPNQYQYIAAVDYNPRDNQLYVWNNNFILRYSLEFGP

T2: recombinant Lectin-Olfactomedin-like domains of human LPHN1 (human, UniProt O94910 25-398, limits assumed)
T2 construct: domain: Lectin-Olfactomedin-like domains; also called Lec/Olf domains of LPHN1; Lec-Olf domains of LPHN1
T2 sequence (looked up): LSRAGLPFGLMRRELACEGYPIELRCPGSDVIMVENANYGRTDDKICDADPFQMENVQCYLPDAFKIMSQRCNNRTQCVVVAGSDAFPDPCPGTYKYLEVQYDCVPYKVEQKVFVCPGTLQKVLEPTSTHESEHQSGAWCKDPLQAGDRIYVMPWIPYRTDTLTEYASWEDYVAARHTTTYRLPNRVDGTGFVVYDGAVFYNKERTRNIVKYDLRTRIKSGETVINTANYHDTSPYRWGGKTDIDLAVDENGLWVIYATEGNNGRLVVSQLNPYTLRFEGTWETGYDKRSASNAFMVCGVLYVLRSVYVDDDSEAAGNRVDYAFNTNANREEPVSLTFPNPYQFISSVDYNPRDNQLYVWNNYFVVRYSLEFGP

T3: recombinant Lectin-Olfactomedin-like domains of human LPHN3 (human, UniProt Q9HAR2 20-393, limits assumed)
T3 construct: domain: Lectin-Olfactomedin-like domains; also called Lec/Olf domains of LPHN3; Lec-Olf domains of LPHN3
T3 sequence (looked up): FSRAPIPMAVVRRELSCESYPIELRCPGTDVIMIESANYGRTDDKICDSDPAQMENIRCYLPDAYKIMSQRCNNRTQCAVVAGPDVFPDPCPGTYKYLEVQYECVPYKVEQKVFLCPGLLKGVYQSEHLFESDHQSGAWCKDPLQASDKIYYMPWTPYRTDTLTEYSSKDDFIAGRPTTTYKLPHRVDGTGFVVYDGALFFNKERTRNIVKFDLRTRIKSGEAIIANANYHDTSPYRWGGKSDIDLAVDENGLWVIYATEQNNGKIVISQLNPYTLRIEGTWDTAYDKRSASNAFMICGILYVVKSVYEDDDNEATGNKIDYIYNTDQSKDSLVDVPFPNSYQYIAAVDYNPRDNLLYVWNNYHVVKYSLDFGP

B1: recombinant human LRG1 (leucine-rich alpha-2 glycoprotein 1), residues V36-Q347, untagged, glycosylated (ligand)
chain: VTLSPKDCQVFRSDHGSSISCQPPAEIPGYLPADTVHLAVEFFNLTHLPANLLQGASKLQELHLSSNGLESLSPEFLRPVPQLRVLDLTRNALTGLPPGLFQASATLDTLVLKENQLEVLEVSWLHGLKALGHLDLSGNRLRKLPPGLLANFTLLRTLDLGENQLETLPPDLLRGPLQLERLHLEGNKLQVLGKDLLLPQPDLRYLFLNGNKLARVAAGAFQGLRQLDMLDLSNNSLASVPEGLWASLGQPNWDMRDGFDISGNPWICDQNLSDLYRWLQAQKDKMFSQNDTRCAGPEAVKGQTLLAVAKSQ
modifications: glycosyl groups at T37 (O-linked), N79, N186, N269 and N325 (N-linked), numbered on SEQ ID NO: 1
notes: also called wild-type LRG1; wild LRG1
B2: deglycosylated LRG1 (LRG1 treated with PNGase F) (ligand)
chain: B1 chain
modifications: N-linked glycans removed with PNGase F (sites N79, N186, N269, N325 on SEQ ID NO: 1)
notes: For FACS it was conjugated with Alexa 647; also called DG-LRG1; deglycosylated form
B3: recombinant human LPHN2 olfactomedin-like domain, residues V135-P394 (receptor, UniProt O95490 135-394, looked up)
chain: VCPGTLKAIVDSPCIYEAEQKAGAWCKDPLQAADKIYFMPWTPYRTDTLIEYASLEDFQNSRQTTTYKLPNRVDGTGFVVYDGAVFFNKERTRNIVKFDLRTRIKSGEAIINYANYHDTSPYRWGGKTDIDLAVDENGLWVIYATEQNNGMIVISQLNPYTLRFEATWETVYDKRAASNAFMICGVLYVVRSVYQDNESETGKNSIDYIYNTRLNRGEYVDVPFPNQYQYIAAVDYNPRDNQLYVWNNNFILRYSLEFGP
notes: range 135-394; Expressed with an Fc tag and released untagged with thrombin; also called Olf domain of LPHN2

For test [1], the target named is T1, recombinant human LPHN2 …. The test can be described thus: solid-phase binding assay (ELISA), plate coated with LPHN2 Lec/Olf domains. How it is done:
(§1) Solid phase binding analysis was performed by a known method (Mol Cancer Ther 14, 470-479 (2015)). LPHN2 extracellular domain variants (Lec, Olf, GAIN/GPS domain; 100 nM) were added to MaxiSorp 96-well plates (Nunc) and incubated at room temperature for 1 hour. The wells were washed twice with PBS and then incubated with 1% bovine serum albumen (BSA) for 2 hours. After blocking, various amounts (0.001, 0.005, 0.01, 0.05, 0.1, 0.5, 1, 5 or 10 μM) of wild-type LRG1 or DG-LRG1 were added to 96-well plates coated with the indicated LPHN2 extracellular domain variants. LRG1 bound to the coated protein was detected by ELISA using an anti-LRG1 antibody (Cat #sc517443, Santa Cruz) and a peroxidase-conjugated anti-mouse secondary antibody (Cat #62-6520, Thermo Fisher Scientific).
Whether or not deglycosylation of LRG1 (DG-LRG1) affects the binding affinity to LPHN2 in vitro (FIG. 7B) and ex vivo (FIGS. 7C and 8C) was determined. […] Cell surface binding rates of LRG1 and DG-LRG1 in HUVEC and HEK293T cells were evaluated and verified again (Table 3, FIGS. 7C and 8C)

Test [2] concerns the target T2, recombinant Lectin-Olfactomedin-like …. In words: solid-phase binding assay (ELISA), plate coated with 100 nM Lec-Olf domain. How it is done:
(§2) FIG. 8E: results of solid phase binding assay to evaluate binding of wild-type LRG1 and DG-LRG1 to the Lec-Olf domains of LPHN1 and LPHN3. The plates were coated with Lec-Olf domains (100 nM) of LPHN1 and LPHN3. After washing and blocking, different amounts (0.001, 0.005, 0.01, 0.05, 0.1, 0.5, 1, 5 and 10 μM) of wild-type LRG1 or DG-LRG1 were added and LRG1 or DG-LRG1 bound to coated proteins were detected by ELISA using anti-LRG1 antibody and anti-mouse secondary antibody.
In general terms: ELISA stands for enzyme-linked immunosorbent assay.

For test [3], the target named is T3, recombinant Lectin-Olfactomedin-like …. Described as above. How it is done:
as §2

In test [4] the target is B1. The test can be described thus: solid-phase binding assay (ELISA), plate coated with LPHN2 ectodomain variants. The method, then:
as §1

The source of these data is US20240083959A1 (INSTITUTE FOR BASIC SCIENCE, published 2024).

A word on the Kd: it is the concentration at which binding is half-saturated. Regarding B1, the Kd in test [1] is 920 nM. Besides, the binding result in test [2] and in test [3] was “no binding (tested: 0.001 to 10 µM added)” throughout.

As to B2, in test [1], the Kd came out at 450 nM. Also, the binding result in test [2] and in test [3] was “no binding (tested: 0.001 to 10 µM added)” in each case.

For the molecule B3, the binding result in test [4] is “binds”.
